Experimental data published in patent US20240279288A1, “APPLICATION OF PLANT JAZ PROTEINS AND DERIVED POLYPEPTIDES IN PREVENTION AND TREATMENT OF HUMAN AND ANIMAL TUMORS” (ANYANG INSTITUTE OF SINO-COTTON INDUSTRY INNOVATION, priority 2021, published 2024).

How the values were obtained:
[1] = test system: breast cancer cells (MCF7); test: CCK8 cell viability detection, MCF7; type: cell-based, human
Protocol: CCK8 cell viability detection: cell suspension was seeded in 96-well plates at a concentration of 5×10^4 cells/ml (100 μL/well). The plates were placed in the incubator for pre-culture (at 37° C., 5% CO2), and control and protein agents were added to each well 24 h after seeding. The plates were then placed in the incubator for 24 h, followed by addition of 10 μL CCK8 solution into each well and incubation of the plates in the incubator for 0.5-2 h before the absorbance measurement at 450 nm using a microplate reader.
We constructed GhJAZ1 prokaryotic expression plasmid with His-tag to express proteins (see step 2 in Example 4), and then a GhJAZ1 protein, along with 6 His tags, which was approximately 30 KD in size was found by WB detection (A in FIG. 7). The purified GhJAZ1 protein was used to treat breast cancer cells (MCF7) and breast epithelial cells (MCF10A), and the cell viability was measured with CCK8.

NMYC = biological target: T1, NMYC (Homo sapiens, UniProt P04198); test: Yeast two hybrid with NMYC; type: binding
T1 construct: with the full length of c-Myc and NMYC, respectively; expressed in transfected cells; host or cells: yeast Y2HGold
T1 sequence (P04198 1-464): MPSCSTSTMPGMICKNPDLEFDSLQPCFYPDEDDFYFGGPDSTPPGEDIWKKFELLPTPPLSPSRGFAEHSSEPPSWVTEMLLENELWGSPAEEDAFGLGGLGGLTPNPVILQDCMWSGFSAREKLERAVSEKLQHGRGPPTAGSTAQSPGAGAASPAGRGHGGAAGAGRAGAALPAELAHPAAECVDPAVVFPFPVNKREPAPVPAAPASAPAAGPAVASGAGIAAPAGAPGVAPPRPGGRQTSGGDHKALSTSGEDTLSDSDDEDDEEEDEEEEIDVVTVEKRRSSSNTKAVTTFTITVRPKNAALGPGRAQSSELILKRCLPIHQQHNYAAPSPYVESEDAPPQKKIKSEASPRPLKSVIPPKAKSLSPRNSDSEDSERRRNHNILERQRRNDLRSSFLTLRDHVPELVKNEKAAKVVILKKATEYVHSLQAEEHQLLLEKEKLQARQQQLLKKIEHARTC
Excerpt: […]

B1: GhJAZ1: cotton JAZ1 protein, gene number Gh_A05G0260, sequence SEQ ID No. 4; prokaryotically expressed with His tag, about 30 KD (protein)
chain: MSSCSESTAMKPARSPEKPSFAQTCNLLSQYLKEKGSFGDLSLGMTCNVEANGTPVVPPPTMNLFPLNDKSDDVCGRNGGNPKNLTSMDLFPQQAGLASKDDSPNKLEPQTAPMTIFYGGQVIVFNDFPANKAKEIMLLASNSSSQSNNSFNPIPFTSSIARSPIESSIGVPPTSKPVHPAQRAVPGDLPIARRASLHRFLEKRKDRITAKAPYQINNSAAAPSLSGDNKSWLGLAAQSP
modifications: His tag
notes: prokaryotically expressed with His tag, about 30 KD
In the case of B1, the IC50 ([1]; CCK8, 24 h treatment, read-out: IC50, inhibition of MCF7 cells) is reported as 691 nM, the “viability of MCF7 cells” value ([1]; with the increase of GhJAZ1 protein concentration) is reported as “decreased significantly” and the “interaction with NMYC” value (NMYC) is reported as “interacted”.
